Experimental data as given in publication PMC8318587, “Structure-guided microbial targeting of antistaphylococcal prodrugs” (eLife, 2021).
Values after ≈ are worked out from the molar mass of the structure shown. Read-outs that look alike come from different tables or passages of the source.

Legend:
S. aureus Newman [1] = test: Minimum inhibitory concentration (MIC) in liquid LB media; assay type: cell-based; conditions: Staphylococcus aureus
Description: (§1) Antibiotic resistance frequency was determined on LB agar plates containing 4× and 10×, the minimum inhibitory concentrations of several antibiotics. MICs were determined for S. aureus Newman in liquid LB media. […] Briefly, S. aureus Newman was grown in LB media to late log-phase and centrifuged at 4000 × g for 15 min before resuspension at an OD600 nm of 30 (~1E11 CFU/mL) in LB media. One hundred microliter aliquots of concentrated S. aureus was plated in duplicate on selective and non-selective plates and incubated at 37°C. After 24 hr, mutation rates were calculated by counting the number of colonies present and dividing by the total number of colonies plated. Experiments were performed in triplicate.

S. aureus Newman [2] = assay type: cell-based, Staphylococcus aureus; conditions: for Mutational frequency at 4× MIC / Mutational frequency at 10× MIC: LB agar, 24 hr, mean ± SD
Description: as §1

[3] = substrate: COC(C)C(=O)OCOc1ccc2c(c1)Oc1cc(OCOC(=O)C(C)OC)ccc1C21OC(=O)c2ccccc21; test: Esterase substrate specificity, fluorogenic SAR library kinetics; assay type: biochemical, Staphylococcus aureus; conditions: other: SaFrmB 15 µg/mL, pH 7.5, 37°C
Description: (§2) Kinetic measurements were performed according to [White et al., 2018] with minor variation. Lyophilized human and mouse sera were resuspended according to manufacturer instructions in highly pure, filtered water at protein concentrations of 85 mg/mL and 70 mg/mL, respectively. One milliliter of resuspended serum was added to a 24 mL mastermix for a final concentration of 31.25 mM Tris pH 7.5, 312.5 mM NaCl, 1.25 mM MgCl2, 12.5% glycerol, and 3.4 mg/mL or 2.8 mg/mL protein for human and mouse serum, respectively. For purified proteins, 5 mL of a 75 µg/mL stock was added to yield a 20 mL mastermix containing 31.25 mM Tris pH 7.5, 312.5 mM NaCl, 1.25 mM MgCl2, 12.5% glycerol, and 18.75 µg/mL protein. Mastermix was stored on ice when not in use. Twenty microliters of mastermix was transferred to a black, 96-well half area microplate (Corning, CLS3993) and prewarmed at 37°C. Fluorogenic substrates were prepared as 10 mM stock solutions in 100% DMSO and were diluted in water to a starting concentration of 500 µM. Enzyme catalyzed substrate hydrolysis was initiated by addition of 5 µL substrate dilution in technical duplicate to the prewarmed serum or protein solution. Final assay concentrations were as follows: 25 mM Tris pH 7.5, 250 mM NaCl, 1 mM MgCl2, 10% glycerol, and protein at a concentration of 2.72 mg/mL (human serum), 2.24 mg/mL (mouse serum), or 15 µg/mL (FrmB, GloB). The resulting change in fluorescence (λex = 485 nm, λem = 520 nm) was followed for 15 min at 37°C, collecting data every 30 s on a FLUOstar Omega microplate reader (BMG Labtech). Fluorescence measurements were converted to molar concentrations using a fluorescein standard curve (2.5 nmol–0.6 pmol). The initial rates of reaction were measured three independent times with two technical replicates per measurement and fit to a line using GraphPad Prism (GraphPad Software, La Jolla, CA). Initial rates of reaction were plotted versus the concentration of substrate and fit to a standard Michaelis–Menten equation (v = Vmax[S]/(Km + [S])), yielding estimates of Vmax and Km. Values for kcat and kcat/Km were calculated based on amount of enzyme added when purified enzymes were used.

[4] = substrate: CCSCCC(=O)OCOc1ccc2c(c1)Oc1cc(OCOC(=O)CCSCC)ccc1C21OC(=O)c2ccccc21; test: as above; assay type: biochemical, Staphylococcus aureus; conditions: other: SaFrmB 15 µg/mL, pH 7.5, 37°C
Description: as §2

[5] = substrate: CCCCC(=O)OCOc1ccc2c(c1)Oc1cc(OCOC(=O)CCCC)ccc1C21OC(=O)c2ccccc21; test: as above; assay type: biochemical, Staphylococcus aureus; conditions: other: SaFrmB 15 µg/mL, pH 7.5, 37°C
Description: as §2

[6] = substrate: COC(C)(C)C(=O)OCOc1ccc2c(c1)Oc1cc(OCOC(=O)C(C)(C)OC)ccc1C21OC(=O)c2ccccc21; test: as above; assay type: biochemical, Staphylococcus aureus; conditions: other: SaFrmB 15 µg/mL, pH 7.5, 37°C
Description: as §2

[7] = substrate: CC(C)OCC(=O)OCOc1ccc2c(c1)Oc1cc(OCOC(=O)COC(C)C)ccc1C21OC(=O)c2ccccc21; test: as above; assay type: biochemical, Staphylococcus aureus; conditions: other: SaFrmB 15 µg/mL, pH 7.5, 37°C
Description: as §2

[8] = substrate: CC(C)SCC(=O)OCOc1ccc2c(c1)Oc1cc(OCOC(=O)CSC(C)C)ccc1C21OC(=O)c2ccccc21; test: as above; assay type: biochemical, Staphylococcus aureus; conditions: other: SaFrmB 15 µg/mL, pH 7.5, 37°C
Description: as §2

[9] = substrate: CSCCC(=O)OCOc1ccc2c(c1)Oc1cc(OCOC(=O)CCSC)ccc1C21OC(=O)c2ccccc21; test: as above; assay type: biochemical, Staphylococcus aureus; conditions: other: SaFrmB 15 µg/mL, pH 7.5, 37°C
Description: as §2

[10] = substrate: CCCC(=O)OCOc1ccc2c(c1)Oc1cc(OCOC(=O)CCC)ccc1C21OC(=O)c2ccccc21; test: as above; assay type: biochemical, Staphylococcus aureus; conditions: other: SaFrmB 15 µg/mL, pH 7.5, 37°C
Description: as §2

[11] = substrate: COCCC(=O)OCOc1ccc2c(c1)Oc1cc(OCOC(=O)CCOC)ccc1C21OC(=O)c2ccccc21; test: as above; assay type: biochemical, Staphylococcus aureus; conditions: other: SaFrmB 15 µg/mL, pH 7.5, 37°C
Description: as §2

[12] = substrate: CCOCC(=O)OCOc1ccc2c(c1)Oc1cc(OCOC(=O)COCC)ccc1C21OC(=O)c2ccccc21; test: as above; assay type: biochemical, Staphylococcus aureus; conditions: other: SaFrmB 15 µg/mL, pH 7.5, 37°C
Description: as §2

[13] = substrate: CCOC(C)C(=O)OCOc1ccc2c(c1)Oc1cc(OCOC(=O)C(C)OCC)ccc1C21OC(=O)c2ccccc21; test: as above; assay type: biochemical, Staphylococcus aureus; conditions: other: SaFrmB 15 µg/mL, pH 7.5, 37°C
Description: as §2

[14] = substrate: CCCOCC(=O)OCOc1ccc2c(c1)Oc1cc(OCOC(=O)COCCC)ccc1C21OC(=O)c2ccccc21; test: as above; assay type: biochemical, Staphylococcus aureus; conditions: other: SaFrmB 15 µg/mL, pH 7.5, 37°C
Description: as §2

[15] = substrate: COCC(=O)OCOc1ccc2c(c1)Oc1cc(OCOC(=O)COC)ccc1C21OC(=O)c2ccccc21; test: as above; assay type: biochemical, Staphylococcus aureus; conditions: other: SaFrmB 15 µg/mL, pH 7.5, 37°C
Description: as §2

[16] = S. aureus Newman, liquid LB media, read-out: MIC

CC(=O)NC[C@H]1CN(c2ccc(N3CCOCC3)c(F)c2)C(=O)O1 [Linezolid]
MIC (S. aureus Newman [1]; [16]): 1.67 µg/mL (≈ 4.95 µM) | Mutational frequency at 4× MIC (S. aureus Newman [2]): <1 E-10 | Mutational frequency at 10× MIC (S. aureus Newman [2]): <1 E-10

CCOc1ccc2ccccc2c1C(=O)N[C@@H]1C(=O)N2[C@@H]1SC(C)(C)[C@@H]2C(=O)O [Nafcillin]
MIC (S. aureus Newman [1]; [16]): 0.5 µg/mL (≈ 1.21 µM) | Mutational frequency at 4× MIC (S. aureus Newman [2]): <1 E-10 | Mutational frequency at 10× MIC (S. aureus Newman [2]): <1 E-10

CN[C@H](CC(C)C)C(=O)N[C@H]1C(=O)N[C@@H](CC(N)=O)C(=O)N[C@H]2C(=O)N[C@H]3C(=O)N[C@H](C(=O)N[C@H](C(=O)O)c4cc(O)cc(O)c4-c4cc3ccc4O)[C@H](O)c3ccc(c(Cl)c3)Oc3cc2cc(c3O[C@@H]2O[C@H](CO)[C@@H](O)[C@H](O)[C@H]2O[C@H]2C[C@](C)(N)[C@H](O)[C@H](C)O2)Oc2ccc(cc2Cl)[C@H]1O [Vancomycin]
MIC (S. aureus Newman [1]; NEWMAN): 2 µg/mL (≈ 1.38 µM) | Mutational frequency at 4× MIC (S. aureus Newman [2]): <1 E-10 | Mutational frequency at 10× MIC (S. aureus Newman [2]): <1 E-10

CCC[C@@H]1C[C@@H](C(=O)N[C@@H]([C@H]2O[C@H](SC)[C@H](O)[C@@H](O)[C@H]2O)[C@H](C)Cl)N(C)C1 [Clindamycin]
MIC (S. aureus Newman [1]; [16]): 0.25 µg/mL (≈ 0.588 µM) | Mutational frequency at 4× MIC (S. aureus Newman [2]): <1 E-10 | Mutational frequency at 10× MIC (S. aureus Newman [2]): <1 E-10

CO[C@H]1/C=C/O[C@@]2(C)Oc3c(C)c(O)c4c(O)c(c(/C=N/N5CCN(C)CC5)c(O)c4c3C2=O)NC(=O)/C(C)=C\C=C\[C@H](C)[C@H](O)[C@@H](C)[C@@H](O)[C@@H](C)[C@H](OC(C)=O)[C@@H]1C [Rifampicin]
MIC (S. aureus Newman [1]; [16]): 0.0075 µg/mL (≈ 0.00911 µM) | Mutational frequency at 4× MIC (S. aureus Newman [2]): 8.96 ± 0.20 E-08 | Mutational frequency at 10× MIC (S. aureus Newman [2]): 7.64 ± 2.10 E-08 | Spontaneous resistance frequency (S. aureus Newman [2]; at 4 and 10 times the MIC): ~ 8E-8

B1: SaFrmB (Staphylococcus aureus subsp. aureus str. Newman) (protein)
chain: MAYISLNYHSPTIGMHQNLTVILPEDQSFFNSDTTVKPLKTLMLLHGLSSDETTYMRYTSIERYANEHKLAVIMPNVDHSAYANMAYGHSYYDYILEVYDYVHQIFPLSKKRDDNFIAGHSMGGYGTIKFALTQGDKFAKAVPLSAVFEAQNLMDLEWNDFSKEAIIGNLSSVKGTEHDPYYLLDKAVAEDKQIPKLLIMCGKQDFLYQDNLDFIDYLSRINVPYQFEDGPGDHDYAYWDQAIKRAITWMVND
notes: made in house; host or cells: E. coli BL21 (DE3)
Km [3]: 107 µM | Vmax [3]: 2.57 pmol*min-1*μg protein-1 | kcat [3]: 0.485 10-3 s-1 | kcat/Km [3]: 4.52 M⁻¹ s⁻¹ | Km [4]: 11.1 µM | Vmax [4]: 0.0295 pmol*min-1*μg protein-1 | kcat [4]: 0.00556 10-3 s-1 | kcat/Km [4]: 0.500 M⁻¹ s⁻¹ | Km [5]: 26.5 µM | Vmax [5]: 0.0637 pmol*min-1*μg protein-1 | kcat [5]: 0.0120 10-3 s-1 | kcat/Km [5]: 0.452 M⁻¹ s⁻¹ | Km [6]: 74.2 µM | Vmax [6]: 0.163 pmol*min-1*μg protein-1 | kcat [6]: 0.0307 10-3 s-1 | kcat/Km [6]: 0.414 M⁻¹ s⁻¹ | Km [7]: 9.17 µM | Vmax [7]: 0.597 pmol*min-1*μg protein-1 | kcat [7]: 0.112 10-3 s-1 | kcat/Km [7]: 12.3 M⁻¹ s⁻¹ | Km [8]: 36.3 µM | Vmax [8]: 0.629 pmol*min-1*μg protein-1 | kcat [8]: 0.118 10-3 s-1 | kcat/Km [8]: 3.27 M⁻¹ s⁻¹ | Km [9]: 52.7 µM | Vmax [9]: 0.505 pmol*min-1*μg protein-1 | kcat [9]: 0.0950 10-3 s-1 | kcat/Km [9]: 1.80 M⁻¹ s⁻¹ | Km [10]: 30.4 µM | Vmax [10]: 0.149 pmol*min-1*μg protein-1 | kcat [10]: 0.0280 10-3 s-1 | kcat/Km [10]: 0.921 M⁻¹ s⁻¹ | Km [11]: 30.0 µM | Vmax [11]: 0.183 pmol*min-1*μg protein-1 | kcat [11]: 0.0345 10-3 s-1 | kcat/Km [11]: 1.15 M⁻¹ s⁻¹ | Km [12]: 13.9 µM | Vmax [12]: 2.04 pmol*min-1*μg protein-1 | kcat [12]: 0.385 10-3 s-1 | kcat/Km [12]: 27.7 M⁻¹ s⁻¹ | Km [13]: 18.3 µM | Vmax [13]: 0.163 pmol*min-1*μg protein-1 | kcat [13]: 0.0307 10-3 s-1 | kcat/Km [13]: 1.68 M⁻¹ s⁻¹ | Km [14]: 9.95 µM | Vmax [14]: 0.621 pmol*min-1*μg protein-1 | kcat [14]: 0.117 10-3 s-1 | kcat/Km [14]: 11.7 M⁻¹ s⁻¹ | Km [15]: 30.3 µM | Vmax [15]: 5.98 pmol*min-1*μg protein-1 | kcat [15]: 1.13 10-3 s-1 | kcat/Km [15]: 37.2 M⁻¹ s⁻¹
